Laboratory results published in publication doi:10.1101/699223 (bioRxiv, 2019).

Tests used:
[1] = biological target: T1, human BBS2 (Bardet-Biedl syndrome protein 2), wild type, HPC4- and c-Myc-tagged (human, UniProt Q9BXC9 1-721); assay: pull-down
T1 sequence (looked up): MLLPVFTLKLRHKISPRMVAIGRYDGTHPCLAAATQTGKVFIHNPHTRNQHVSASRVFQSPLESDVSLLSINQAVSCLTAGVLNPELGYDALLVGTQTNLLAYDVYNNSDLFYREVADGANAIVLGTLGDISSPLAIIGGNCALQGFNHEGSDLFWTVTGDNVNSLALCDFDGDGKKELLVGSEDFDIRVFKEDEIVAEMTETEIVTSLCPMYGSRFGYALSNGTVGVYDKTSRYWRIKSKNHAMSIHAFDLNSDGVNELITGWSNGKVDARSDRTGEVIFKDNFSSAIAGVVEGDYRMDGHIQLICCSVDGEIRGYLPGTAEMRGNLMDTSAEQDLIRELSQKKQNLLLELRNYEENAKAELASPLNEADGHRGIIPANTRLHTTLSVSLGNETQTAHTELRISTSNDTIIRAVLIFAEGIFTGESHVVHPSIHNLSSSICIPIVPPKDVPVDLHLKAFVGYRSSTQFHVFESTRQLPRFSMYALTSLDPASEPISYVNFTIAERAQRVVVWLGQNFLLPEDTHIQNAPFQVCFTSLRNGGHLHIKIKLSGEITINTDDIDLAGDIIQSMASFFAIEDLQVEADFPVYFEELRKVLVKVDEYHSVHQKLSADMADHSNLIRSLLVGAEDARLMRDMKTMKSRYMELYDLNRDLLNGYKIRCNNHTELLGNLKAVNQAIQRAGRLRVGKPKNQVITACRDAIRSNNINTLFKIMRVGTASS

[2] = biological target: T2, human BBS2 L349W, c-Myc-tagged (human, UniProt Q9BXC9 1-721, L349W); assay: co-IP
T2 sequence (looked up): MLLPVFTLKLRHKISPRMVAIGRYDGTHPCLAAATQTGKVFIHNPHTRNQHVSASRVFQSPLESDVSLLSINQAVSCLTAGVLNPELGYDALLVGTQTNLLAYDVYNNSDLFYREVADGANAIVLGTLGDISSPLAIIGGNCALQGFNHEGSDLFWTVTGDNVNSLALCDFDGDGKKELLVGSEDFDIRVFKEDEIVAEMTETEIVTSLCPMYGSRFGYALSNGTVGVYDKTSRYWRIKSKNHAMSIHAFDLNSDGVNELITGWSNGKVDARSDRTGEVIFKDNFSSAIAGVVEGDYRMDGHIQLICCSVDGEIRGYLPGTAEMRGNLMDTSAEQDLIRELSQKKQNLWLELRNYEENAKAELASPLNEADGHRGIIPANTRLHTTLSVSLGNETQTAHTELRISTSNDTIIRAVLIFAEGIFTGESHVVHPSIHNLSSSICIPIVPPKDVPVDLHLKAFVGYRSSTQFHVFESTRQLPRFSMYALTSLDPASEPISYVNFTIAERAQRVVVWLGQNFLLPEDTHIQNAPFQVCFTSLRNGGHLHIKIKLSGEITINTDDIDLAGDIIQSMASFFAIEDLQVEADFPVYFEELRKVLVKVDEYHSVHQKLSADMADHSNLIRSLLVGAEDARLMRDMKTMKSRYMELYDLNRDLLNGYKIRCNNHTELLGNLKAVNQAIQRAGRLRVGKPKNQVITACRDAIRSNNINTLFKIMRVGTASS

B1: human BBS7 (Bardet-Biedl syndrome protein 7), wild type, Flag-Strep-tagged (natural protein, UniProt Q8IWZ6 1-715, looked up)
chain: MDLILNRMDYLQVGVTSQKTMKLIPASRHRATQKVVIGDHDGVVMCFGMKKGEAAAVFKTLPGPKIARLELGGVINTPQEKIFIAAASEIRGFTKRGKQFLSFETNLTESIKAMHISGSDLFLSASYIYNHYCDCKDQHYYLSGDKINDVICLPVERLSRITPVLACQDRVLRVLQGSDVMYAVEVPGPPTVLALHNGNGGDSGEDLLFGTSDGKLALIQITTSKPVRKWEIQNEKKRGGILCIDSFDIVGDGVKDLLVGRDDGMVEVYSFDNANEPVLRFDQMLSESVTSIQGGCVGKDSYDEIVVSTYSGWVTGLTTEPIHKESGPGEELKINQEMQNKISSLRNELEHLQYKVLQERENYQQSSQSSKAKSAVPSFGINDKFTLNKDDASYSLILEVQTAIDNVLIQSDVPIDLLDVDKNSAVVSFSSCDSESNDNFLLATYRCQADTTRLELKIRSIEGQYGTLQAYVTPRIQPKTCQVRQYHIKPLSLHQRTHFIDHDRPMNTLTLTGQFSFAEVHSWVVFCLPEVPEKPPAGECVTFYFQNTFLDTQLESTYRKGEGVFKSDNISTISILKDVLSKEATKRKINLNISYEINEVSVKHTLKLIHPKLEYQLLLAKKVQLIDALKELQIHEGNTNFLIPEYHCILEEADHLQEEYKKQPAHLERLYGMITDLFIDKFKFKGTNVKTKVPLLLEILDSYDQNALISFFDAA
binding result [1]: binds | decrease in binding relative to WT [2]: 30%
